T1: FcγRIIa R (human, UniProt P12318 34-217)
T1 construct: extracellular domain; also called FcgRIIa R type; 2aR
T1 sequence (looked up): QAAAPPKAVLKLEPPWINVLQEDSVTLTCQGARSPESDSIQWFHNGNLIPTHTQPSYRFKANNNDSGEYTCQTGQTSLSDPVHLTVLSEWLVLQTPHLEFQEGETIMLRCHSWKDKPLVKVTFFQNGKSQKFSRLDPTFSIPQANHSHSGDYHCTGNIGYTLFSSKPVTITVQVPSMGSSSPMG


molecular target: T1, FcγRIIa R; test: SPR (Biacore), captured antibody, FcγR as analyte; relative binding activity
Method: Analysis of interaction between objective antibody and the FcγR was carried out using Biacore T100 (GE Healthcare). HBS-EP+ (GE Healthcare) was used as the running buffer, and the measurement temperature was set to 25° C. Chips produced by immobilizing the antigen peptide by the amine coupling method to a Series S Sencor Chip CM5 (GE Healthcare), or alternatively, chips produced by allowing preliminarily biotinylated antigen peptides to interact with and immobilize onto a Series S Sensor Chip SA (certified) (GE Healthcare) were used. Antibodies of interest were captured onto an antigen peptide-immobilized chip, and allowed to interact to each FcγR diluted with running buffer. To regenerate and repeatedly use the chip, the antibodies captured on the chip were washed off by reacting 10 mM glycine-HCl, pH 1.5.

Binder | Ho/Con_2aR
GpH7-B3 variant G237_08L/GpL16-k0 (antibody, human IgG1, kappa, also called Ho Ab G237_08L) heavy: not shown light: DIVMTQSPLSLPVTPGEPASISCQASESLVHSNRNTYLHWYLQKPGQSPQLLIYKVSNRFSGVPDRFSGSGSGTDFTLKISRVEAEDVGVYYCSQNTHVPPTFGQGTKVEIERTVAAPSVFIFPPSDEQLKSGTASVVCLLNNFYPREAKVQWKVDNALQSGNSQESVTEQDSKDSTYSLSSTLTLSKADYEKHKVYACEVTHQGLSSPVTKSFNRGEC | 56.6 % (GpH7-B3/GpL16-k0 = 100)
GpH7-B3 variant H268_01G/GpL16-k0 (antibody, human IgG1, kappa, also called Ho Ab H268_01G) heavy: not shown light: DIVMTQSPLSLPVTPGEPASISCQASESLVHSNRNTYLHWYLQKPGQSPQLLIYKVSNRFSGVPDRFSGSGSGTDFTLKISRVEAEDVGVYYCSQNTHVPPTFGQGTKVEIERTVAAPSVFIFPPSDEQLKSGTASVVCLLNNFYPREAKVQWKVDNALQSGNSQESVTEQDSKDSTYSLSSTLTLSKADYEKHKVYACEVTHQGLSSPVTKSFNRGEC | 122 % (GpH7-B3/GpL16-k0 = 100)
GpH7-B3 variant K326_03V/GpL16-k0 (antibody, human IgG1, kappa, also called Ho Ab K326_03V) heavy: not shown light: DIVMTQSPLSLPVTPGEPASISCQASESLVHSNRNTYLHWYLQKPGQSPQLLIYKVSNRFSGVPDRFSGSGSGTDFTLKISRVEAEDVGVYYCSQNTHVPPTFGQGTKVEIERTVAAPSVFIFPPSDEQLKSGTASVVCLLNNFYPREAKVQWKVDNALQSGNSQESVTEQDSKDSTYSLSSTLTLSKADYEKHKVYACEVTHQGLSSPVTKSFNRGEC | 139 % (GpH7-B3/GpL16-k0 = 100)
GpH7-B3 variant I332_14T/GpL16-k0 (antibody, human IgG1, kappa, also called Ho Ab I332_14T) heavy: not shown light: DIVMTQSPLSLPVTPGEPASISCQASESLVHSNRNTYLHWYLQKPGQSPQLLIYKVSNRFSGVPDRFSGSGSGTDFTLKISRVEAEDVGVYYCSQNTHVPPTFGQGTKVEIERTVAAPSVFIFPPSDEQLKSGTASVVCLLNNFYPREAKVQWKVDNALQSGNSQESVTEQDSKDSTYSLSSTLTLSKADYEKHKVYACEVTHQGLSSPVTKSFNRGEC | 99.6 % (GpH7-B3/GpL16-k0 = 100)
GpH7-B3 variant G237_18N/GpL16-k0 (antibody, human IgG1, kappa, also called Ho Ab G237_18N) heavy: not shown light: DIVMTQSPLSLPVTPGEPASISCQASESLVHSNRNTYLHWYLQKPGQSPQLLIYKVSNRFSGVPDRFSGSGSGTDFTLKISRVEAEDVGVYYCSQNTHVPPTFGQGTKVEIERTVAAPSVFIFPPSDEQLKSGTASVVCLLNNFYPREAKVQWKVDNALQSGNSQESVTEQDSKDSTYSLSSTLTLSKADYEKHKVYACEVTHQGLSSPVTKSFNRGEC | 73.6 % (GpH7-B3/GpL16-k0 = 100)
GpH7-B3 variant H268_20W/GpL16-k0 (antibody, human IgG1, kappa, also called Ho Ab H268_20W) heavy: not shown light: DIVMTQSPLSLPVTPGEPASISCQASESLVHSNRNTYLHWYLQKPGQSPQLLIYKVSNRFSGVPDRFSGSGSGTDFTLKISRVEAEDVGVYYCSQNTHVPPTFGQGTKVEIERTVAAPSVFIFPPSDEQLKSGTASVVCLLNNFYPREAKVQWKVDNALQSGNSQESVTEQDSKDSTYSLSSTLTLSKADYEKHKVYACEVTHQGLSSPVTKSFNRGEC | 110 % (GpH7-B3/GpL16-k0 = 100)
GpH7-B3 variant I336_18N/GpL16-k0 (antibody, human IgG1, kappa, also called Ho Ab I336_18N) heavy: not shown light: DIVMTQSPLSLPVTPGEPASISCQASESLVHSNRNTYLHWYLQKPGQSPQLLIYKVSNRFSGVPDRFSGSGSGTDFTLKISRVEAEDVGVYYCSQNTHVPPTFGQGTKVEIERTVAAPSVFIFPPSDEQLKSGTASVVCLLNNFYPREAKVQWKVDNALQSGNSQESVTEQDSKDSTYSLSSTLTLSKADYEKHKVYACEVTHQGLSSPVTKSFNRGEC | 94.5 % (GpH7-B3/GpL16-k0 = 100)
GpH7-B3 variant H268_15Y/GpL16-k0 (antibody, human IgG1, kappa, also called Ho Ab H268_15Y) heavy: not shown light: DIVMTQSPLSLPVTPGEPASISCQASESLVHSNRNTYLHWYLQKPGQSPQLLIYKVSNRFSGVPDRFSGSGSGTDFTLKISRVEAEDVGVYYCSQNTHVPPTFGQGTKVEIERTVAAPSVFIFPPSDEQLKSGTASVVCLLNNFYPREAKVQWKVDNALQSGNSQESVTEQDSKDSTYSLSSTLTLSKADYEKHKVYACEVTHQGLSSPVTKSFNRGEC | 106 % (GpH7-B3/GpL16-k0 = 100)
GpH7-B3 variant G237_20W/GpL16-k0 (antibody, human IgG1, kappa, also called Ho Ab G237_20W) heavy: not shown light: DIVMTQSPLSLPVTPGEPASISCQASESLVHSNRNTYLHWYLQKPGQSPQLLIYKVSNRFSGVPDRFSGSGSGTDFTLKISRVEAEDVGVYYCSQNTHVPPTFGQGTKVEIERTVAAPSVFIFPPSDEQLKSGTASVVCLLNNFYPREAKVQWKVDNALQSGNSQESVTEQDSKDSTYSLSSTLTLSKADYEKHKVYACEVTHQGLSSPVTKSFNRGEC | 107 % (GpH7-B3/GpL16-k0 = 100)
GpH7-B3 variant G237_13S/GpL16-k0 (antibody, human IgG1, kappa, also called Ho Ab G237_13S) heavy: not shown light: DIVMTQSPLSLPVTPGEPASISCQASESLVHSNRNTYLHWYLQKPGQSPQLLIYKVSNRFSGVPDRFSGSGSGTDFTLKISRVEAEDVGVYYCSQNTHVPPTFGQGTKVEIERTVAAPSVFIFPPSDEQLKSGTASVVCLLNNFYPREAKVQWKVDNALQSGNSQESVTEQDSKDSTYSLSSTLTLSKADYEKHKVYACEVTHQGLSSPVTKSFNRGEC | 44.4 % (GpH7-B3/GpL16-k0 = 100)
GpH7-B3 variant H268_05P/GpL16-k0 (antibody, human IgG1, kappa, also called Ho Ab H268_05P) heavy: not shown light: DIVMTQSPLSLPVTPGEPASISCQASESLVHSNRNTYLHWYLQKPGQSPQLLIYKVSNRFSGVPDRFSGSGSGTDFTLKISRVEAEDVGVYYCSQNTHVPPTFGQGTKVEIERTVAAPSVFIFPPSDEQLKSGTASVVCLLNNFYPREAKVQWKVDNALQSGNSQESVTEQDSKDSTYSLSSTLTLSKADYEKHKVYACEVTHQGLSSPVTKSFNRGEC | 95.9 % (GpH7-B3/GpL16-k0 = 100)
GpH7-B3 variant I336_06M/GpL16-k0 (antibody, human IgG1, kappa, also called Ho Ab I336_06M) heavy: not shown light: DIVMTQSPLSLPVTPGEPASISCQASESLVHSNRNTYLHWYLQKPGQSPQLLIYKVSNRFSGVPDRFSGSGSGTDFTLKISRVEAEDVGVYYCSQNTHVPPTFGQGTKVEIERTVAAPSVFIFPPSDEQLKSGTASVVCLLNNFYPREAKVQWKVDNALQSGNSQESVTEQDSKDSTYSLSSTLTLSKADYEKHKVYACEVTHQGLSSPVTKSFNRGEC | 96.4 % (GpH7-B3/GpL16-k0 = 100)
GpH7-B3 variant G237_09D/GpL16-k0 (antibody, human IgG1, kappa, also called Ho Ab G237_09D) heavy: not shown light: DIVMTQSPLSLPVTPGEPASISCQASESLVHSNRNTYLHWYLQKPGQSPQLLIYKVSNRFSGVPDRFSGSGSGTDFTLKISRVEAEDVGVYYCSQNTHVPPTFGQGTKVEIERTVAAPSVFIFPPSDEQLKSGTASVVCLLNNFYPREAKVQWKVDNALQSGNSQESVTEQDSKDSTYSLSSTLTLSKADYEKHKVYACEVTHQGLSSPVTKSFNRGEC | 73.1 % (GpH7-B3/GpL16-k0 = 100)
GpH7-B3 variant H268_03V/GpL16-k0 (antibody, human IgG1, kappa, also called Ho Ab H268_03V) heavy: not shown light: DIVMTQSPLSLPVTPGEPASISCQASESLVHSNRNTYLHWYLQKPGQSPQLLIYKVSNRFSGVPDRFSGSGSGTDFTLKISRVEAEDVGVYYCSQNTHVPPTFGQGTKVEIERTVAAPSVFIFPPSDEQLKSGTASVVCLLNNFYPREAKVQWKVDNALQSGNSQESVTEQDSKDSTYSLSSTLTLSKADYEKHKVYACEVTHQGLSSPVTKSFNRGEC | 105 % (GpH7-B3/GpL16-k0 = 100)
GpH7-B3 variant I336_08L/GpL16-k0 (antibody, human IgG1, kappa, also called Ho Ab I336_08L) heavy: not shown light: DIVMTQSPLSLPVTPGEPASISCQASESLVHSNRNTYLHWYLQKPGQSPQLLIYKVSNRFSGVPDRFSGSGSGTDFTLKISRVEAEDVGVYYCSQNTHVPPTFGQGTKVEIERTVAAPSVFIFPPSDEQLKSGTASVVCLLNNFYPREAKVQWKVDNALQSGNSQESVTEQDSKDSTYSLSSTLTLSKADYEKHKVYACEVTHQGLSSPVTKSFNRGEC | 105 % (GpH7-B3/GpL16-k0 = 100)
GpH7-B3 variant H268_11K/GpL16-k0 (antibody, human IgG1, kappa, also called Ho Ab H268_11K) heavy: not shown light: DIVMTQSPLSLPVTPGEPASISCQASESLVHSNRNTYLHWYLQKPGQSPQLLIYKVSNRFSGVPDRFSGSGSGTDFTLKISRVEAEDVGVYYCSQNTHVPPTFGQGTKVEIERTVAAPSVFIFPPSDEQLKSGTASVVCLLNNFYPREAKVQWKVDNALQSGNSQESVTEQDSKDSTYSLSSTLTLSKADYEKHKVYACEVTHQGLSSPVTKSFNRGEC | 93.4 % (GpH7-B3/GpL16-k0 = 100)
GpH7-B3 variant H268_12R/GpL16-k0 (antibody, human IgG1, kappa, also called Ho Ab H268_12R) heavy: not shown light: DIVMTQSPLSLPVTPGEPASISCQASESLVHSNRNTYLHWYLQKPGQSPQLLIYKVSNRFSGVPDRFSGSGSGTDFTLKISRVEAEDVGVYYCSQNTHVPPTFGQGTKVEIERTVAAPSVFIFPPSDEQLKSGTASVVCLLNNFYPREAKVQWKVDNALQSGNSQESVTEQDSKDSTYSLSSTLTLSKADYEKHKVYACEVTHQGLSSPVTKSFNRGEC | 98.5 % (GpH7-B3/GpL16-k0 = 100)
GpH7-B3 variant G237_10E/GpL16-k0 (antibody, human IgG1, kappa, also called Ho Ab G237_10E) heavy: not shown light: DIVMTQSPLSLPVTPGEPASISCQASESLVHSNRNTYLHWYLQKPGQSPQLLIYKVSNRFSGVPDRFSGSGSGTDFTLKISRVEAEDVGVYYCSQNTHVPPTFGQGTKVEIERTVAAPSVFIFPPSDEQLKSGTASVVCLLNNFYPREAKVQWKVDNALQSGNSQESVTEQDSKDSTYSLSSTLTLSKADYEKHKVYACEVTHQGLSSPVTKSFNRGEC | 22.5 % (GpH7-B3/GpL16-k0 = 100)
GpH7-B3 variant I332_06M/GpL16-k0 (antibody, human IgG1, kappa, also called Ho Ab I332_06M) heavy: not shown light: DIVMTQSPLSLPVTPGEPASISCQASESLVHSNRNTYLHWYLQKPGQSPQLLIYKVSNRFSGVPDRFSGSGSGTDFTLKISRVEAEDVGVYYCSQNTHVPPTFGQGTKVEIERTVAAPSVFIFPPSDEQLKSGTASVVCLLNNFYPREAKVQWKVDNALQSGNSQESVTEQDSKDSTYSLSSTLTLSKADYEKHKVYACEVTHQGLSSPVTKSFNRGEC | 105 % (GpH7-B3/GpL16-k0 = 100)
GpH7-B3 variant G237_19Q/GpL16-k0 (antibody, human IgG1, kappa, also called Ho Ab G237_19Q) heavy: not shown light: DIVMTQSPLSLPVTPGEPASISCQASESLVHSNRNTYLHWYLQKPGQSPQLLIYKVSNRFSGVPDRFSGSGSGTDFTLKISRVEAEDVGVYYCSQNTHVPPTFGQGTKVEIERTVAAPSVFIFPPSDEQLKSGTASVVCLLNNFYPREAKVQWKVDNALQSGNSQESVTEQDSKDSTYSLSSTLTLSKADYEKHKVYACEVTHQGLSSPVTKSFNRGEC | 14.3 % (GpH7-B3/GpL16-k0 = 100)
